According to patent publication US20160151410A1, “CLEARANCE OF BIOACTIVE LIPIDS FROM MEMBRANE STRUCTURES BY CYCLODEXTRINS” (The Trustees of Columbia University in the City of New York, priority 2013, published 2016):

Assays:
Format in all cases: biochemical
[1] = system: classical pathway of complement system; test: Complement activation (C3 fixation) by LIPC- or CEase-digested immobilized LDL with human serum; details: 0-50 μg/ml LIPC; 0-2 hours
Experimental: 96-well MaxiSorp plates were coated with fresh human LDL (A, D, E), VLDL (B), or NaOH-hydrolyzed LDL (C). After blocking with BSA, the plates, except (C), were digested with LIPC. To test complement activation, the plates were incubated with diluted native human serum (N), C1q-depleted human serum (Cd), factor B-depleted human serum (Bd), or human serum containing Mg-EGTA (ME). C3 fixation on the plate was detected with a monoclonal anti-C3d antibody followed by HRP-conjugated secondary antibody. Specific conditions for LIPC digestion and HRP-catalyzed color development of each experiment were outlined as following: LIPC was used at 10 μg/ml for (A, B, E), 0-50 μg/ml for (D), and no LIPC for (C). LIPC degradation was 1 hour for (D), 2 hours for (A, B), and 0-2 hours for (E). Color development was 15 minutes for (A, B, C, E) and 10 minutes for (D). For NaOH hydrolysis of LDL, 1.35 mg/ml of LDL was incubated in 0.15M NaOH solution at 25° C. for up to 60 minutes. Aliquots were taken out and neutralized with 0.15M HCl at 1, 10, 20, 60 minutes.
LIPC and CEase, both having 8 μUnits of phospholipase A1 activity but having 3 μUnits and 8125 μUnits of triglyceride hydrolase activity respectively, were used for 2 hours digestion of immobilized LDL. Complement activation with diluted native human serum is then determined as in FIG. 1. The HRP-catalyzed color development was 15 minutes.
Human LDL coating and 1 hour (C) or 2 hours (A, B) LIPC digestion was performed as described in FIG. 1. (A) For complement activation, 0-50 μM of phosphocholine was added into diluted native human serum. […]
After thorough washing of the plate, C3 fixation and final membrane attack complex formation on the plate were determined with anti-human C3d antibody and anti-human C5b-9 antibody, in combination with HRP-conjugated secondary antibody, respectively. […] The final peroxidase activity was monitored at 450 nm with 3,3′,5,5′-tetramethyl-benzidine and hydrogen peroxide as substrates after 10 or 15 minutes reaction at room temperature.

[2] = Triglyceride hydrolase activity assay; details: amount of enzyme used for LDL digestion
Experimental: (§1) Triglyceride hydrolase activity of CEase and LIPC was determined with DMPTB as substrate according to Choi et al. (Choi et al., 2003) Phospholipase A activity of CEase and LIPC was assayed similarly as triglyceride hydrolase activity but with 1.5 mM of 1,2-bis(heptanoylthio)glycerophosphocholine as substrate and assay buffer containing 10 mM of CaCl2 instead of 1 mM of EDTA.

[3] = Phospholipase A activity assay; details: amount of enzyme used for LDL digestion
Experimental: as §1

- PLA1 activity [3]: 8 μUnits
B1: LIPC: recombinant human LIPC (hepatic lipase) (protein, UniProt P11150 23-499, looked up)
Hepatic triacylglycerol lipase: LGQSLKPEPFGRRAQAVETNKTLHEMKTRFLLFGETNQGCQIRINHPDTLQECGFNSSLPLVMIIHGWSVDGVLENWIWQMVAALKSQPAQPVNVGLVDWITLAHDHYTIAVRNTRLVGKEVAALLRWLEESVQLSRSHVHLIGYSLGAHVSGFAGSSIGGTHKIGRITGLDAAGPLFEGSAPSNRLSPDDANFVDAIHTFTREHMGLSVGIKQPIGHYDFYPNGGSFQPGCHFLELYRHIAQHGFNAITQTIKCSHERSVHLFIDSLLHAGTQSMAYPCGDMNSFSQGLCLSCKKGRCNTLGYHVRQEPRSKSKRLFLVTRAQSPFKVYHYQFKIQFINQTETPIQTTFTMSLLGTKEKMQKIPITLGKGIASNKTYSFLITLDVDIGELIMIKFKWENSAVWANVWDTVQTIIPWSTGPRHSGLVLKTIRVKAGETQQRMTFCSENTDDLLLRPTQEKIFVKCEIKSKTSKRKIR
- complement activation, dependence on LIPC degradation [1]: both dose and time-dependent
- TGhydrolase activity [2]: 3 μUnits
